Measured values as given in patent US6479637B1, “Hemoglobin-haptoglobin complexes” (Hemsol Inc., priority 1998, dated 2002).

How the values were obtained:
[1] = biological target: T1, haptoglobin 1-1 (Homo sapiens, UniProt P00738); test: Complex formation of modified hemoglobins with haptoglobin 1-1 (size exclusion / anion exchange chromatography); type: binding; details: THb-PQ mixture with haptoglobin 1-1, room temperature, 21 hours
T1 construct: Hp 1-1 is composed of two α^1β dimers and has a molecular weight of about 98 kDa
T1 sequence (P00738 19-347 isoform P00738-2 limits assumed): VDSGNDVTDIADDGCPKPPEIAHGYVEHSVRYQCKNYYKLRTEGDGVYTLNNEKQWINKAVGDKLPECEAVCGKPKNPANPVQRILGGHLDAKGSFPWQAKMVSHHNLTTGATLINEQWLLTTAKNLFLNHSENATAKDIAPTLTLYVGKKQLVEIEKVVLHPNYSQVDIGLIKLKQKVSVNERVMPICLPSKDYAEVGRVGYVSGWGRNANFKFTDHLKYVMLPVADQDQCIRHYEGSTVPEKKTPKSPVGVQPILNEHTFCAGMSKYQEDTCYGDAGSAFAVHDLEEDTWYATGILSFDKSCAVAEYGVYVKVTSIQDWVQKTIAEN
T1 sequence (P00738 103-347 isoform P00738-2 limits assumed): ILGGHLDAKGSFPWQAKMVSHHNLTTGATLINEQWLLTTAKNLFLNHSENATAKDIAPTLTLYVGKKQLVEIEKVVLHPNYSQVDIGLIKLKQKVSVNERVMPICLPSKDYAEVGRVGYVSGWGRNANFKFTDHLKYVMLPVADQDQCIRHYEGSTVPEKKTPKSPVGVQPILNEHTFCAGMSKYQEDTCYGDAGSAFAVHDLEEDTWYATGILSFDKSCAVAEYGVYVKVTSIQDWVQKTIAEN

[2] = system: plasmid DNA (pCMVbeta); test: Gel mobility shift assay of DNA binding; details: 50 to 1600 ng of protein, 140 ng DNA
Protocol: Gel mobility shift assays were conducted to evaluate the stoichiometry of binding of plasmid DNA (pCMVbeta) to the THb-Kn conjugates. This gel electrophoretic method is based on the observation that the migratory properties of the DNA are altered upon binding protein. Neither proteins nor DNA-protein complexes in which protein constitutes a significant part of their mass enter 1% agarose gels. If mixtures with an increasing THb-Kn to DNA ratio are analyzed, it is observed that the DNA band disappears at and above the ratio that corresponds to the stoichiometry of the complex. For each of the four conjugates and for the THb-K26kDa-Hp complex, solutions containing from 0.4 to 6400 ng of the conjugate (this weight based on the hemoglobin component) in 32 μL of 20 mM HEPES pH 7.3 containing 150 mM NaCl were prepared. […] The samples (15 μL) were analyzed on a 1% agarose gel containing ethidium bromide (0.2 μg/mL). The amount of conjugate which prevented DNA entry into the gel was determined.
FIG. 4A (left) and 4B (right) are depictions of gel mobility shift assays of haptoglobin-hemoglobin-DNA conjugates produced according to Example 4. […] The results for THb-K26kDa are in good agreement with the fluorescence quench assay which indicated 86% of fluorescence decrease at the same THb-K26kDa to DNA ratio. […]

[3] = biological target: T2, rat haptoglobin (Rattus norvegicus, UniProt P06866); test: Binding of modified human Hb ([3H]-NEM-Hb) to rat haptoglobin in plasma (SEC)
T2 construct: combined with rat serum containing haptoglobin; from tissue; host or cells: rat serum
T2 sequence (P06866 19-101 limits assumed): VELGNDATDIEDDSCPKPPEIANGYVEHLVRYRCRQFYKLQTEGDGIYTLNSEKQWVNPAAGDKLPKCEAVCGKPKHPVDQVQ
T2 sequence (P06866 103-347 limits assumed): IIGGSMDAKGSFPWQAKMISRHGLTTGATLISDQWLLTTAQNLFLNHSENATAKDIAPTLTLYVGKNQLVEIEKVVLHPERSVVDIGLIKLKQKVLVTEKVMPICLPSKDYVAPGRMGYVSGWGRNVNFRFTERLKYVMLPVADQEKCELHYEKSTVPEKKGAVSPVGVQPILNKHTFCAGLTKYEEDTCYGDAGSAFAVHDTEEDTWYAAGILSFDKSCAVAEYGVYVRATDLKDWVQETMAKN
Protocol: 1 mCi of ^3H-N-ethylmaleimide ([^3H]-NEM) in pentane was evaporated in 0.5 mL phosphate buffer, and 25 mg of Hb in 1 mL buffer was added giving a final NEM:Hb ratio of 0.06:1, or 37 μCi/mg Hb. RP HPLC analysis after 24 hours at 4° C. indicated incorporation of the majority of the radiolabel into a modified beta peak. After 47 hr, a 15-fold excess (over βCys93 thiol) of non-radiolabeled NEM was added. Salts and unbound NEM were removed by gel filtration, and the final concentration adjusted to 10.2 mg Hb/mL. A small portion of this material (^3H-NEM-Hb) was then combined with rat serum containing haptoglobin to determine if all radiolabeled components bound to Hp. The Hb-binding capacity of the rat serum was adjusted to […] Hb/mL serum. 0.5 and 2.0 equivalents of ^3H-NEM-Hb, based on Hb-binding capacity, were combined with serum and analyzed -by size exclusion chromatography eluted under dissociating, non-denaturing conditions using 0.5 M MgCl2, 25 mM Tris pH 7.4 (FIG. 15). In the ^3H-NEM-Hb preparation, all radioactivity was associated with a 32 kDa peak. […] 7.3% of the radioactivity combining with plasma components appears in a high MW peak at 22 minutes.

[4] = Biodistribution of modified Hb and haptoglobin complexes in rat; details: for AUC Liver / AUC Plasma: dose = ug Hb/g body weight, no extrapolation to time zero
Protocol: The ability of Hp to target modified Hb to the liver was measured in a radioisotope biodistribution study. Two test articles were prepared from purified human HbA0 modified with tritium-labeled N-ethylmaleimide ([^3H]-NEM-Hb): [^3H]-NEM-Hb alone in Ringer's lactate, and [^3H]-NEM-Hb complexed to a slight excess of rat haptoglobin in rat plasma. Three treatment groups were analyzed; (A) normal rats received the modified Hb-haptoglobin complex in plasma, (B) normal rats received the modified Hb only (approximately twice the Hb-binding capacity of the rat), and (C) haptoglobin-depleted rats received the modified Hb only. Approximately 3 mg of Hb were administered to conscious Sprague-Dawley rats in each case. Liver and plasma samples were collected at 30, 60 and 120 minutes post-administration and radioactivity counted after solubilization and quenching.

[5] = 30 minutes, haptoglobin-depleted rats (group C)
[6] = 30 minutes, normal rats (groups A, B)
[7] = haptoglobin-depleted rats (group C)

Substance	reacted with Hp (anion exchange chromatography) [1]	DNA binding (change in DNA migration) [2]	capability of all components to bind rat haptoglobin in plasma [3]	radioactivity appearing in the Hb-haptoglobin peak ([3]; 0.5 eq. based on Hb-binding capacity of rat serum, SEC)	binding state at haptoglobin saturation ([3]; 2.0 eq. based on Hb-binding capacity of rat serum, SEC)	radioactivity combining with plasma components appearing in high MW peak at 22 minutes ([3]; rat serum, SEC)	dose in the plasma and liver compartments relative to groups A and B [4, 5]	total dose in the liver [4, 5]	dose in the plasma and liver compartments [4, 6]	total dose in the liver [4, 6]	liver to plasma concentration/dose ratio ([4]; 120 minutes, normal rats (groups A, B))	liver content relative to group C ([4]; 120 minutes, normal rats vs haptoglobin-depleted rats given modified Hb only)	AUC Liver [4, 7]	AUC Plasma [4, 7]	liver uptake (area under distribution curve) relative to group C ([4]; normal rats (groups A, B) vs haptoglobin-depleted rats)	AUC Liver ([4]; normal rats (groups A, B))	AUC Plasma ([4]; normal rats (groups A, B))
THb: TTDS (trimesoyl tris(3,5-dibromosalicylate)) cross-linked hemoglobin, hydrolyzed, without attached agent [reference compound]	74%	does not bind DNA	–	–	–	–	–	–	–	–	–	–	–	–	–	–	–
[^3H]-NEM-Hb: purified human HbA0 modified with tritium-labeled N-ethylmaleimide; given alone to groups B and C	–	–	capable of binding rat haptoglobin in plasma	all radioactivity appeared in the Hb-haptoglobin peak	haptoglobin is saturated and excess ^3H-NEM-Hb remains unbound	7.3%	roughly half that amount	11%	60%	approximately 20%	approximately 4 times	2 fold	234.0 ug Hb · min/g/dose	163.0 ug Hb · min/mL/dose	approximately twice that of group C	510.4 ug Hb · min/g/dose	284.2 ug Hb · min/mL/dose
unmodified hemoglobin: unmodified (uncross-linked) hemoglobin remaining in the THb-PQ product mixture	all	–	–	–	–	–	–	–	–	–	–	–	–	–	–	–	–
